Tests used:
[1] = biological target: Full-length Hsc70-T204A (ATPase deficient mutant) (human) (UniProt P11142); test: NMR 15N-CPMG relaxation dispersion with exchange-induced shifts; 15N-labelled JDP (DNAJB6 JD-GF 200 μM, DNAJB6 JD 350 μM, DNAJB1 300 μM) with unlabelled Hsc70-T204A at a molar ratio of 0.1, ATP-regenerating system, 20 mM HEPES pH 7.0, 50 mM KCl, 2.5 mM MgCl2, 25 °C, 600, 800 and 950 MHz; fit to a 2-state model; kex = kon app + koff
[2] = biological target: Full-length Hsc70-T204A (ATPase deficient mutant) (human) (UniProt P11142); test: NMR 15N-CPMG relaxation dispersion and exchange-induced shifts; 15N-labelled JDP observed, unlabelled Hsc70-T204A added to a molar ratio of 0.1 (DNAJB6 JD-GF 200 uM, DNAJB6 JD 350 uM, DNAJB1 300 uM); 25 °C; 20 mM HEPES pH 7.0, 50 mM KCl, 2.5 mM MgCl2; ATP-regenerating system with 2.5 mM ATP; fit to a two-state binding model

Sequence of Full-length Hsc70-T204A (ATPase deficient mutant) (human) (P11142 whole entry T204A): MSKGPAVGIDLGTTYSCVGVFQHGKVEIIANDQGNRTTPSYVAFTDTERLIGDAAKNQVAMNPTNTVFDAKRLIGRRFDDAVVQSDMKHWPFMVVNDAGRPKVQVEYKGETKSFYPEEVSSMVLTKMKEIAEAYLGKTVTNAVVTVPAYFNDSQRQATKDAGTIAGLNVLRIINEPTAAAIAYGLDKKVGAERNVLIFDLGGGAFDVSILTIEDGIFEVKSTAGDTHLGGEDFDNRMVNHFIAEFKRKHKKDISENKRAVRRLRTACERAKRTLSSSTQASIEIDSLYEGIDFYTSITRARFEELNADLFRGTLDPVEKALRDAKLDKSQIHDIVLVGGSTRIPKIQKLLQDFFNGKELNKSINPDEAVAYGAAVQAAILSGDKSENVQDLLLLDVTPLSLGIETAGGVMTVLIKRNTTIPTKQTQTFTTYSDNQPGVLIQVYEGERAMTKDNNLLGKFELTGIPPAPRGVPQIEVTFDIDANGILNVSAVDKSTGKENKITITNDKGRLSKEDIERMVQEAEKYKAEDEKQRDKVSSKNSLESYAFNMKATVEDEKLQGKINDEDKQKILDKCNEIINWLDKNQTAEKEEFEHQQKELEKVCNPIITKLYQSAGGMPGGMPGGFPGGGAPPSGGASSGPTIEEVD

| Substance | Kd [1] [µM] | kex [1] [s⁻¹] | koff [1] [s⁻¹] | kon [2] [M⁻¹ s⁻¹] |
| --- | --- | --- | --- | --- |
| DNAJB6 JD (from UniProt O75190 1-326) (domain or fragment) | 3 | 3000 | 2700 | – |
| DNAJB6 JD-GF (from UniProt O75190 1-326) (domain or fragment) | 380 | 600 | 580 | 1.54e+06 |
